Assay results: patent US20170008928A1, “NOVEL PEPTIDES AND PEPTIDE DERIVATIVES AND USES THEREOF” (Novo Nordisk A/S, priority 2015, published 2017)
Starred links: 1 amine or outer side, 2 acyl side, 3 side chain; linkers in the order of their positions; H or OH if unused. Non-standard residues stand in square brackets, D forms with d. Residues, ends and D or L forms follow the SMILES beside them. No end group written: not given here. *: point of attachment. Phe(4-CH2SO3H) = N[C@@H](Cc1ccc(CS(=O)(=O)O)cc1)C(=O)O; sY = N[C@@H](Cc1ccc(OS(=O)(=O)O)cc1)C(=O)O; C18 diacid = O=C(O)CCCCCCCCCCCCCCCCC(=O)*; NMe1Nal = CN[C@@H](Cc1cccc2ccccc12)C(=O)O; γGlu = O=C(O)[C@H](CCC(=O)[*:2])N[*:1]; NMeF = CN[C@@H](Cc1ccccc1)C(=O)O; dNMeD = CN[C@H](CC(=O)O)C(=O)O; Nle = CCCC[C@H](N)C(=O)O; AEEA = NCCOCCOCC(=O)O

T1: human cholecystokinin-2 receptor (CCK-2R) (Homo sapiens, UniProt P32239)
T1 construct: host or cells: 1321-N1 cells (plasma membranes prepared by Evotec AG Hamburg)
T1 sequence (P32239 1-447): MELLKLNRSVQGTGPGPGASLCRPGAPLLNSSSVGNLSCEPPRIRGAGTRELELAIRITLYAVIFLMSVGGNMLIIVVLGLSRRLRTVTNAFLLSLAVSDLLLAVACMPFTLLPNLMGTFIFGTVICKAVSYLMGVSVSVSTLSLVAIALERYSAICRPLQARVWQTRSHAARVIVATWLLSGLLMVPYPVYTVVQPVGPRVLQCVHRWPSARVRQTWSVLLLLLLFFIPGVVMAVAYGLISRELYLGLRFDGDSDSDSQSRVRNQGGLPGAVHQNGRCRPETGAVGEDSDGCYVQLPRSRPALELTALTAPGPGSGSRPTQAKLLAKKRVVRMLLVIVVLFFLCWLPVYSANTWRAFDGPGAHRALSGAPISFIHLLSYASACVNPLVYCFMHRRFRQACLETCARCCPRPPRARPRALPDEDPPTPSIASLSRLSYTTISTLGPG

T2: human cholecystokinin-1 receptor (human), P32238
T2 chain: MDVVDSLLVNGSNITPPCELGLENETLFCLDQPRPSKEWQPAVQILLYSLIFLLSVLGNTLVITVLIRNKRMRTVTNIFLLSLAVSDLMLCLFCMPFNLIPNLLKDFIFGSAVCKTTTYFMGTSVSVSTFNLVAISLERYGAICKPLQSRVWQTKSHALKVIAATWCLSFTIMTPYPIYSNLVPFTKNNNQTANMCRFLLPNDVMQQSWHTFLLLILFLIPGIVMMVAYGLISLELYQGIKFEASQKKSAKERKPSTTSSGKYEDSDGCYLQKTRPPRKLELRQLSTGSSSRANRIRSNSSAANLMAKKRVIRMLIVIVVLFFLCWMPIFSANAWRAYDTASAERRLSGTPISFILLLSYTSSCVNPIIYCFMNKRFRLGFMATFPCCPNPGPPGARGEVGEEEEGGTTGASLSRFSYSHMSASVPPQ

T3: human cholecystokinin-2 receptor (human), P32239
T3 chain: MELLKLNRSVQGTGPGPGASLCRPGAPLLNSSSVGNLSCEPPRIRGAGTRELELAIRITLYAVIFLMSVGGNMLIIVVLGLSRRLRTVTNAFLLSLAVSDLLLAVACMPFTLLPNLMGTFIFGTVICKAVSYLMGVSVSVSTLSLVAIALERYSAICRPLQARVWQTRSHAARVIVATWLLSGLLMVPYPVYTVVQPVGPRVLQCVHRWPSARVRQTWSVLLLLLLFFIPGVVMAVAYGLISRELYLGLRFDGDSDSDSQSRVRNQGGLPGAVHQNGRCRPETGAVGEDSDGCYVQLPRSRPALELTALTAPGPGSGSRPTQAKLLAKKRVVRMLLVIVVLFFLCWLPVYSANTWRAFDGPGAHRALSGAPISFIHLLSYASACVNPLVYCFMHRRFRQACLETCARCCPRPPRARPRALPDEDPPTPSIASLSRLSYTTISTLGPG


What was measured:
[1] = Chemical stability compared to CCK-8s, 8 mM phosphate pH 7.4, RP-UHPLC; type: physicochemical; conditions: for Absolute purity loss (pp): 1 mM in 8 mM sodium phosphate pH 7.4
Experimental: The resulting samples were stored in HPLC vials at 5° C. and 37° C. for 2 weeks. The samples were analysed in the beginning of the experiment (t=0), after one week and after two weeks by RP-UHPLC with a mobile phase containing phosphate and with a gradient of acetonitrile. UV detection at 215 nm was used. Samples after one week and two weeks were analysed twice. The calculations were done as described above, and the results are summarised in Table 7 (average of two determinations).

[2] = biological target: T1, human cholecystokinin-2 receptor (CCK-2R); assay: In vitro potency on CCK-2R, whole cell functional assay (IP1 accumulation, IP-One HTRF); type: cell-based; conditions: 1321-N1 cells stably expressing CCK-2R; IP1 accumulation; highest dose tested 1×10^6 pM; read-out: EC50 (CCK-2R)
[3] = Pharmacokinetic (PK) studies in mini-pig, i.v.; type: in vivo; conditions: i.v. 5 nmol/kg, female Göttingen mini-pigs, harmonic mean; for half-life: minipig, plasma, iv, read-out: Plasma terminal half-life (T½) (converted)
Experimental: The purpose of this study is to determine the protraction in vivo of a number of CCK derivatives of the invention after intravenous (i.v.) administration to mini-pigs, i.e. the prolongation of their time in the body and thereby their time of action. This was done in pharmacokinetic (PK) studies, where the terminal half-life of the derivative in question was determined. By terminal half-life is generally meant the period of time it takes to halve a certain plasma concentration, measured after the initial distribution phase.
The derivatives of the compounds listed in Table 4 were subjected to PK studies as described in the following.
Female Göttingen mini-pigs obtained from Ellegaard Göttingen Minipigs (Dalmose, Denmark) at approximately 6 months of age and weighing approximately 17 kg were used in the studies. […] Additional blood samples were collected for the derivatives of Examples 2, 4, 7, 8, and 9 at the following time points: 5, 12, 22, 28 and 144 hours. The blood samples were collected into test tubes containing EDTA buffer for stabilisation and kept on ice for max. 20 minutes before centrifugation. The centrifugation procedure to separate plasma was: 4° C., approx. 2500 g for 10 minutes. Plasma was collected and immediately transferred to Micronic tubes stored at −20° C. until assayed.
Plasma was pipetted into Micronic tubes on dry ice, and kept at −20° C. until analysed for plasma concentration of the respective CCK derivative using LC-MS. The plasma samples (including standard curve samples used for quantitation of unknowns and prepared from blank plasma spiked with CCK compound at a concentration range of 0.5-2000 nM for the compounds of Examples 3, 5, 6 or 0.5-1000 nM for the remaining Example compounds) were protein precipitated using three volumes of methanol and centrifuged (16000×g, 4° C., 20 min). The supernatants were injected into the chromatographic system (TurboFlow Transcend 1250 & 10 valve VIM, Thermo Fisher Scientific) which consisted of an initial Turboflow Cyclone purification column 0.5×50 mm (Thermo Fischer Scientific) and an eluting Aeris peptide 3.6 μm XB—C18 column 2.1×50 mm (Phenomenex) kept at 60° C.
The CCK derivatives of Examples 2-9 were eluted using LC-MS method I: A chromatographic gradient system with mobile phases consisting of water with 0.1 v/v % formic acid (mobile phase A) and water/acetonitrile 10/90 v/v with 0.1 v/v % formic acid (mobile phase B). The 2 minute gradient started at 60% mobile phase B and ended at 100% mobile phase B with a flow of 0.4 mL/min. The CCK derivatives were detected and quantified after on-line infusion of the LC flow to the LTQ OrbiTrap Discovery mass spectrometer (Thermo Fischer Scientific) equipped with an electrospray interface operated in negative mode, ESI− (Sheath gas flow rate at 40, Aux gas flow rate at 30, Sweep gas flow rate at 2, Spray voltage at 2.8 kV, Capillary temp. at 275° C., S-lens RF level at −125 and Heater temp. at 325° C.).
The remaining Example compounds were eluted using LC-MS method II: A chromatographic gradient system with mobile phases consisting of water with 1 v/v % formic acid (mobile phase A) and water/acetonitrile 10/90 v/v with 1 v/v % formic acid (mobile phase B). The initial 0.25 minute gradient started at 0% mobile phase B and ended at 70% mobile phase B followed by the second 2.2 minute gradient started at 70% mobile phase B and ended at 75% mobile phase B with a flow of 0.4 mL/min. These CCK derivatives were detected and quantified as described above except that the Spray voltage was 4.0 kV.
Individual plasma concentration-time profiles were analysed by a non-compartmental model in Phoenix v. 6.3 (Pharsight Inc., Mountain View, Calif., USA).

[4] = biological target: T1, human cholecystokinin-2 receptor (CCK-2R); assay: In vitro receptor binding to CCK-2R, SPA displacement of [125I]-CCK-8s from plasma membranes
[5] = biological target: T2, human cholecystokinin-1 receptor …; assay: cell-based or functional assay
[6] = biological target: T3, human cholecystokinin-2 receptor …; assay: cell-based or functional assay
[7] = biological target: T2, human cholecystokinin-1 receptor …; assay: SPA competition vs [125I]-CCK-8s, membranes
[8] = biological target: T3, human cholecystokinin-2 receptor …; assay: SPA competition vs [125I]-CCK-8s, membranes

EC50 (CCK-1R) [5] | EC50 (CCK-2R) [6] | IC50 [7] | IC50 [8] | Molecule | further results
– | – | – | – | CSCC[C@H](NC(=O)[C@H](Cc1ccc(OS(=O)(=O)O)cc1)NC(=O)[C@@H](N)CC(=O)O)C(=O)NCC(=O)N[C@@H](Cc1c[nH]c2ccccc12)C(=O)N[C@@H](CCSC)C(=O)N[C@@H](CC(=O)O)C(=O)N[C@@H](Cc1ccccc1)C(N)=O [CCK-8s, H-Asp-Tyr(SO3H)-Met-Gly-Trp-Met-Asp-Phe-NH2] | purity at the start of the experiment (incubation time 0) ([1]; 1 mM in 8 mM sodium phosphate pH 7.4, t=0): 97.94%; Absolute purity loss (pp) ([1]; 5° C., 1 week): −0.04 pp; Absolute purity loss (pp) ([1]; 5° C., 2 weeks): 0.09 pp; Absolute purity loss (pp) ([1]; 37° C., 1 week): 1.42 pp; Absolute purity loss (pp) ([1]; 37° C., 2 weeks): 3.33 pp
– | – | – | – | CCCC[C@H](NC(=O)[C@H](Cc1c[nH]c2ccccc12)NC(=O)CNC(=O)[C@H](CC(C)C)NC(=O)[C@H](Cc1ccc(OS(=O)(=O)O)cc1)NC(=O)[C@H](CC(=O)O)NC(=O)COCCOCCNC(=O)COCCOCCNC(=O)CC[C@H](NC(=O)CCCCCCCCCCCCCCCCC(=O)O)C(=O)O)C(=O)N(C)[C@H](CC(=O)O)C(=O)N(C)[C@@H](Cc1cccc2ccccc12)C(N)=O [Example 4, 2-[2-[2-[[2-[2-[2-[[(4S)-4-Carboxy-4-(17-carboxyheptadecanoylamino)butanoyl]amino]ethoxy]ethoxy]acetyl]amino]ethoxy]ethoxy]acetyl-Asp-sTyr-Leu-Gly-Trp-Nle-DMeAsp-Me1Nal-amide] ({C18 diacid-γGlu-AEEA-AEEA}-D[sY]LGW[Nle][dNMeD][NMe1Nal]-NH2) | EC50 [2]: 340 nM; Plasma terminal half-life (T½) [3]: 147 h
– | – | – | – | CCCC[C@H](NC(=O)[C@H](Cc1c[nH]c2ccccc12)NC(=O)CNC(=O)[C@H](CC(C)C)NC(=O)[C@H](Cc1ccc(CS(=O)(=O)O)cc1)NC(=O)[C@H](CC(=O)O)NC(=O)COCCOCCNC(=O)COCCOCCNC(=O)CC[C@H](NC(=O)CCCCCCCCCCCCCCCCC(=O)O)C(=O)O)C(=O)N(C)[C@H](CC(=O)O)C(=O)N(C)[C@@H](Cc1ccccc1)C(N)=O [Example 5, 2-[2-[2-[[2-[2-[2-[[(4S)-4-Carboxy-4-(17-carboxyheptadecanoylamino)butanoyl]amino]ethoxy]ethoxy]acetyl]amino]ethoxy]ethoxy]acetyl-Asp-Phe(4-sulfomethyl)-Leu-Gly-Trp-Nle-DMeAsp-MePhe-amide] ({C18 diacid-γGlu-AEEA-AEEA}-D[Phe(4-CH2SO3H)]LGW[Nle][dNMeD][NMeF]-NH2) | half-life [3]: 4.42 days; IC50 [4]: 380 nM
– | – | – | – | CCCC[C@H](NC(=O)[C@H](Cc1c[nH]c2ccccc12)NC(=O)CNC(=O)[C@H](CC(C)C)NC(=O)[C@H](Cc1ccc(OS(=O)(=O)O)cc1)NC(=O)[C@H](CC(=O)O)NC(=O)CCCCCCCCCCCCCCCCC(=O)O)C(=O)N(C)[C@H](CC(=O)O)C(=O)N(C)[C@@H](Cc1ccccc1)C(N)=O [Example 38, 17-Carboxyheptadecanoyl-Asp-sTyr-Leu-Gly-Trp-Nle-DMeAsp-MePhe-amide] | EC50 [2]: > 1000 nM; half-life [3]: 0.125 days
140 pM | 730 nM | 0.31 nM | 6400 nM | {C18 diacid-γGlu-AEEA-AEEA}-D[sY]LGWV[DMeAsp][NMeF]-NH2 | –
240 pM | > 1000 nM | 0.078 nM | 6100 nM | D[sY]LGWI[DMeAsp][NMeF]-NH2 [Asp-sTyr-Leu-Gly-Trp-Ile-DMeAsp-MePhe-amide] | –
180 pM | 260 nM | 0.1 nM | 2300 nM | {C18 diacid-γGlu-AEEA-AEEA}-D[sY]LGWI[DMeAsp][NMeF]-NH2 | –
170 pM | 150 nM | 0.19 nM | 1000 nM | {C18 diacid-γGlu-AEEA-AEEA}-D[sY]LGWP[DMeAsp][NMeF]-NH2 | –
270 pM | 79 nM | – | 420 nM | {C18 diacid-γGlu-AEEA-AEEA}-D[sY]LGWL[DMeAsp][NMeF]-NH2 | –
